In US20150065436A1, “INHIBITING INTERACTION BETWEEN HIF-1ALPHA AND p300/CBP WITH HYDROGEN BOND SURROGATE-BASED HELICES” (UNIVERSITY OF SOUTHERN CALIFORNIA, priority 2013, published 2015):
code X = not defined here

How the values were obtained:
[1] = target: coactivator protein p300 (or the homologous CREB binding protein, CBP) (human) (UniProt Q09472); assay: cell-based or functional assay
[2] = target: p300-CH1 (cysteine-histidine rich 1 domain of human coactivator protein p300, amino acid residues 323-423) (human) (UniProt Q09472); assay: tryptophan fluorescence spectroscopy; reference peptide 3
p300-CH1 (cysteine-histidine rich 1 domain of human coactivator protein p300, amino acid residues 323-423) (human), sequence (Q09472 323-423 limits assumed): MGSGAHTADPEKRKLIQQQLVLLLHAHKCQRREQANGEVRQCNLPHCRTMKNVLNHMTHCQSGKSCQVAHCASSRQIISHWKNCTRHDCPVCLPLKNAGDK

[3] = target: p300-CH1 (cysteine-histidine rich 1 domain of human coactivator protein p300, amino acid residues 323-423) (human) (UniProt Q09472); assay: tryptophan (Trp403) fluorescence spectroscopy, peptide titrated into 1 µM 15N-labeled p300-CH1
[4] = target: p300-CH1 (cysteine-histidine rich 1 domain of human coactivator protein p300, amino acid residues 323-423) (human) (UniProt Q09472); assay: fluorescence polarization competition; HBS 1 added to preformed complex of 300 nM p300-CH1 and 15 nM Flu-HIF C-TAD
[5] = target: p300-CH1 (cysteine-histidine rich 1 domain of human coactivator protein p300, amino acid residues 323-423) (human) (UniProt Q09472); assay: fluorescence polarization competition: HBS 1 added to the preformed complex of p300-CH1 (300 nM) and Flu-HIF C-TAD (15 nM); displaced ligand: fluorescein-labeled HIF-1α C-TAD786-826
[6] = target: coactivator protein p300 (or the homologous CREB binding protein, CBP) (human), Q09472; assay: cell-based or functional assay
coactivator protein p300 (or the homologous CREB binding protein, CBP) (human), Q09472, sequence (Q09472 2-2414 limits assumed): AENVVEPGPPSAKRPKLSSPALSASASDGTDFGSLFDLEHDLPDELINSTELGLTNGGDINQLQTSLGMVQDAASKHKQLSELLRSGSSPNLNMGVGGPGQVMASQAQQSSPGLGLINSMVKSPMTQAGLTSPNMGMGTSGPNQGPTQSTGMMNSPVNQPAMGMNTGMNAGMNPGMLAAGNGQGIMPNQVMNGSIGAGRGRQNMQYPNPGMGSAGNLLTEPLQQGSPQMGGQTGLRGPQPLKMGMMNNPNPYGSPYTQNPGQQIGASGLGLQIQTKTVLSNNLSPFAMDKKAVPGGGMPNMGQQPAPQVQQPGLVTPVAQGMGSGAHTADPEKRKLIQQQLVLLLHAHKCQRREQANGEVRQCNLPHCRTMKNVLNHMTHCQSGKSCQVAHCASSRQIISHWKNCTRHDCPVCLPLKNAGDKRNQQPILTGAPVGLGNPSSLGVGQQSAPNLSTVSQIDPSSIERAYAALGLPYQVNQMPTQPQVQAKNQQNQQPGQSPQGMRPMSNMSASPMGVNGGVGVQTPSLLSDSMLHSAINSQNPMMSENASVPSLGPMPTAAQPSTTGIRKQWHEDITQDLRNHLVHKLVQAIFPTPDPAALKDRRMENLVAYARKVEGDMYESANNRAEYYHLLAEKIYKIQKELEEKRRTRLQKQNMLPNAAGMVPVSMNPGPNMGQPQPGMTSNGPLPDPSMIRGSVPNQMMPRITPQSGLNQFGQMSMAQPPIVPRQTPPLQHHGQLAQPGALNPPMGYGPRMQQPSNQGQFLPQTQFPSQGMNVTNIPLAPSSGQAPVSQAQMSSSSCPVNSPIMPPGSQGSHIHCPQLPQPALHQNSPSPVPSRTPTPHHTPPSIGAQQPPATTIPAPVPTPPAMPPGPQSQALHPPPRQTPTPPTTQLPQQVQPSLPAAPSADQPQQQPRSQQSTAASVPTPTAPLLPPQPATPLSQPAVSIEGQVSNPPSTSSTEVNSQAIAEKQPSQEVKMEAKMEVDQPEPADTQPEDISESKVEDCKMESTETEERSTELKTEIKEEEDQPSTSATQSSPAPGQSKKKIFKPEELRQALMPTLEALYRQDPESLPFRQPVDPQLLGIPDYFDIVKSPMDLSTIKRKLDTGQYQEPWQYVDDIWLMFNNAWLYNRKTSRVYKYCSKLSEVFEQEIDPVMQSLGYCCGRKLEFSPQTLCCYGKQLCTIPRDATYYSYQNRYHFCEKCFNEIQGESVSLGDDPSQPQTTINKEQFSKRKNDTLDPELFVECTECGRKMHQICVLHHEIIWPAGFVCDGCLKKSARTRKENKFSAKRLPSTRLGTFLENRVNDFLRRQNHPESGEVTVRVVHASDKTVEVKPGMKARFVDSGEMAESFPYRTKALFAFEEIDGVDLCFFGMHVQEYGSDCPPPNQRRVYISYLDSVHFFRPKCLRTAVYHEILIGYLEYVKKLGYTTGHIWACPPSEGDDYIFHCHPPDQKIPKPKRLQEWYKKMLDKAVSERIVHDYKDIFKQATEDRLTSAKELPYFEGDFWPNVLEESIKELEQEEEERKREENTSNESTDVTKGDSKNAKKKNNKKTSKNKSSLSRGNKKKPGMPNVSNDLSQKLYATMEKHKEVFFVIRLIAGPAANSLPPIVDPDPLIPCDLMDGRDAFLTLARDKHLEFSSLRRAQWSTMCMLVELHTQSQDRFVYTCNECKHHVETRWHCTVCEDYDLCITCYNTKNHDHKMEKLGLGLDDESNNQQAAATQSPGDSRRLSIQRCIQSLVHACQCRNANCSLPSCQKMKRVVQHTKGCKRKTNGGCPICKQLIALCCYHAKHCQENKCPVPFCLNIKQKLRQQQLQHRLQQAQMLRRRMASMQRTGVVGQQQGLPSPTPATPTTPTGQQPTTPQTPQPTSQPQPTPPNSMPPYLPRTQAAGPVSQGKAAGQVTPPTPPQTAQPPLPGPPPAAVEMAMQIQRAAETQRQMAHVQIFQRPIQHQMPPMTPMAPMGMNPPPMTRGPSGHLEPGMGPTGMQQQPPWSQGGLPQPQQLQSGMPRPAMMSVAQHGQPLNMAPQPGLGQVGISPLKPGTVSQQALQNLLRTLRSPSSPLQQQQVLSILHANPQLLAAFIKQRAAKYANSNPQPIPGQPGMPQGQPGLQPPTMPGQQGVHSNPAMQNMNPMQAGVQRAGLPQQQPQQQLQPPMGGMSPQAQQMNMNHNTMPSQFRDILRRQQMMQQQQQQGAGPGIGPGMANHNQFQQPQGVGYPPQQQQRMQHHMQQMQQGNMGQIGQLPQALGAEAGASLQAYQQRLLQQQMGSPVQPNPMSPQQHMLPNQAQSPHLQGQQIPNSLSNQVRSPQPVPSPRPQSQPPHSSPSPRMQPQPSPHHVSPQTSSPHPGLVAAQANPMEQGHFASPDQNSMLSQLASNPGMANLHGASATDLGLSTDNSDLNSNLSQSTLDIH

[7] = target: p300-CH1 (cysteine-histidine rich 1 domain of human coactivator protein p300, amino acid residues 323-423) (human), Q09472; assay: tryptophan (Trp403) fluorescence spectroscopy, peptide titrated into 1 µM 15N-labeled p300-CH1
p300-CH1 (cysteine-histidine rich 1 domain of human coactivator protein p300, amino acid residues 323-423) (human), Q09472, sequence (Q09472 323-423 limits assumed): as the sequence (Q09472 323-423 limits assumed) above

coactivator protein p300 (or the homologous CREB binding protein, CBP) (human), sequence (Q09472 2-2414 limits assumed): as the sequence (Q09472 2-2414 limits assumed) above

expression levels of VEGF, qRT-PCR, hypoxic HeLa cells (% reduction at 10 µM) [1] | expression levels of VEGF, qRT-PCR, hypoxic HeLa cells (% reduction at 50 µM) [1] | inhibition of SLC2A1 (GLUT1) expression, qRT-PCR, hypoxic HeLa cells [1] [%] | luciferase expression, HRE-luciferase reporter in MDA-MB-231-HRE-Luc cells under hypoxia (% reduction at 50 µM) [1] | fold increase in binding affinity over peptide 3 [2] [fold] | Kd [3] [µM] | Ki [4] [µM] | IC50 (read off the curve) [5] [µM] | downregulation of SLC2A1 and LOX expression, qRT-PCR, hypoxic HeLa cells [6] [%] | Kd [7] [µM] | Binder
50 | > 60 | 50 to 60 | 25 | 9 | 0.69 | 3.5 | 10 | – | – | {code X}-ELARALDQ-NH2 (not fully specified (residue 3, bridges); reading uncertain; also: hydrogen bond surrogate constraint, places not given here) [HBS 1]
– | – | – | – | – | – | – | – | 25 | 6.06 | ELARALDQ (modifications not checked) [Peptide 3]
